Data published in patent publication US5596072.

Target: functional human IL-4 receptor (hIL-4R) on TF-1 cells (human) (UniProt P24394)
Test: displacement of I^125-hIL-4 from TF-1 cells

B1: mouse IL-13 (mouse P600), E. coli-derived (ligand)
chain: APGPVPRSVSLPLTLKELIEELSNITQDQTPLCNGSMVWSVDLAAGGFCVALDSLTNISNCNAIYRTQRILHGLCNRKAPTTVSSLPDTKI
IC50: 0.2 nM | percent of the I^125-hIL-4 binding displaced: 70%
